According to patent US7666446B2, “Oral formulation for delivery of poorly absorbed drugs” (ProCarrier, Inc., priority 2004, dated 2010):

Columns and labels:
[1] = Decomposition test: rhGH concentration by ELISA after shaking; type: physicochemical
Method: A solution of rhGH (5 ng/mL) was prepared in 20 mM phosphate buffer. The phosphate buffer was prepared in triple-distilled, filtered water (0.22 μm filter), and its pH was adjusted to pH 7.4 with sodium hydroxide solution. Solutions of rhGH were shaken for 1 min at high speed with a vortex mixer (Scientific Industries Inc.). After shaking, samples were equilibrated for specific time intervals at room temperature. Concentrations of rhGH were then determined by ELISA according to methods well known in the art.

[2] = rat, in vivo
Method: To determine absorption from the intestine, male Sprague Dawley rats weighing 250-300 g with free access to water were fasted for about 18 h prior to experiments. These rats were anesthetized and maintained with Ketamine/Xylazine (([…])/(80 mg/kg)) by intraperitoneal injection. The small intestine was exposed by a midline abdominal incision. A small incision was made in the stomach to insert a polyethylene tube (i.d. 0.76 mm, o.d. 1.22 mm, Clay Adams), toward the middle duodenum, which was closed at the exposed end by a stopcock to prevent drainage of drug solution from the duodenum. Blood samples were taken with a heparinized syringe through the jugular vein catheter at predetermined time intervals. After collecting, samples were coagulated for about 90 min and then were centrifuged for 10 min at 6000 rpm. The supernatant was removed and stored at −20° C. Samples were analyzed for hGH protein levels with a Human Growth Hormone ELISA Kit (coated plate, ICN Diagnostics) according to the manufacturer's protocol.
For the controls, either glucosamine 40 mg/kg plus sucrose laurate 40 mg/kg (i.e., 100 units of carrier) or 10 mg/kg of rhGH (Advanced Protein Technologies Inc., Suwon, Korea) were administered per intraduodenum. […] To evaluate the effect of varying the amount of carrier administered, the amount of rhGH was held at 3 mg/kg rhGH and the Tmax was measured. […] In the case of intraduodenal administration, the controls were fixed at 10 units of carrier. The amount of rhGH was varied to include 1, 3, and 10 mg/kg of rhGH.
Finally, to evaluate the effectiveness of the carrier itself, the type of carrier was varied while maintaining the same level of rhGH (3 mg/kg).

[3] = Intraduodenal absorption of rhGH/PEP solutions, rhGH by ELISA (Example 3); type: in vivo, male Sprague-Dawley rats; conditions: rats, rhGH administered without PEP solution
Method: RhGH solutions containing a promoter (glucosamine or poly-L-lysine), an enhancer (sucrose laurate 16), and a protector (methylcellulose) were prepared in water according to the proportions set out in Table 2.
The abdominal muscle was sutured under the skin. […] Four rats were in each treatment group. […]

With rhGH: recombinant human growth hormone as the substance, how does the “Concentration rhGH” value ([1]; 0 min, 5 ng/mL rhGH, phosphate buffer pH 7.4) read?
Its value is 5 ng/mL.

And the “Concentration rhGH” value ([1]; 1 min after shaking, room temperature)?
The value was 1.05 ng/mL.

What about the “Concentration rhGH” value ([1]; 30 min after shaking, room temperature) of the same substance?
Its value is 0.65 ng/mL.

And the “Concentration rhGH” value ([1]; 60 min after shaking, room temperature)?
Its value is 0.43 ng/mL.

And the “Concentration rhGH” value ([1]; 90 min after shaking, room temperature)?
The value was 0.40 ng/mL.

And the Tmax ([2]; 3 mg/kg)?
The Tmax was “less than 20 min”.

And the “absorption of rhGH” value ([2]; 3 mg/kg)?
Its value is “increased absorption”.

And the bioavailability ([2]; 3 mg/kg)?
The bioavailability was 7.1%.

What about the “peak serum rhGH concentration” value ([2]; sc, 0.1 mg/kg) of the same substance?
The value was 73 ng/mL.

And the rhGH in serum [3]?
The rhGH in serum was “not detected”.
